Test results from article PMC9482650, “Quantitative fragmentomics allow affinity mapping of interactomes” (Nature Communications, 2022).

Each binder was assayed against T1, LNX2_3, Q8N448 (assay: holdup assay). Conditions: plain residues with an end cap or a label only (N-terminal biotin on a linker: ado-ado).
T1 sequence (Q8N448 463-564, limits assumed, looked up): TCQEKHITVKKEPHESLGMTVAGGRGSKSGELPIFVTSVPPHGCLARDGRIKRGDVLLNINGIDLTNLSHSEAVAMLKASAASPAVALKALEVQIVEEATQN
Set-up: key: below the threshold = too weak to quantify, mostly under pKd 3.1 to 4
KPGKGSETVV [FZD4, Q9ULV1] was tested, and the pKd was “below the threshold”.
With AAVENKVTDL [PLXNB1, O43157] the pKd was “below the threshold”.

Each binder was assayed against IL16_3, Q14005 (assay: holdup assay). Conditions: plain residues with an end cap or a label only (N-terminal biotin on a linker: ado-ado).
Chain of IL16_3, Q14005 (Q14005 1107-1207): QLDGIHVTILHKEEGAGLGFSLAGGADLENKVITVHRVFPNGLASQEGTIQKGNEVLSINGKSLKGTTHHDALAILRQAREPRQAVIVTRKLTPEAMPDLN
Set-up: key: below the threshold = too weak to quantify, mostly under pKd 3.1 to 4
For KPGKGSETVV [FZD4, Q9ULV1], the pKd was “below the threshold”.
In the case of AAVENKVTDL [PLXNB1, O43157], the pKd is reported as “below the threshold”.

Each binder was assayed against TJP2_1, Q9UDY2 (assay: holdup assay). Conditions: plain residues with an end cap or a label only (N-terminal biotin on a linker: ado-ado).
Chain of TJP2_1, Q9UDY2 (Q9UDY2 24-128): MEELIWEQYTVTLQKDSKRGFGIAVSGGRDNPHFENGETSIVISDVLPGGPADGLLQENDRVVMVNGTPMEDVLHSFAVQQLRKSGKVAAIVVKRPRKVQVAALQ
Set-up: key: below the threshold = too weak to quantify, mostly under pKd 3.1 to 4
With KPGKGSETVV [FZD4, Q9ULV1] the pKd was “below the threshold”.
For AAVENKVTDL [PLXNB1, O43157], the pKd was “below the threshold”.

These binders were tested against T2, DLG3_3, Q92796 (assay: holdup assay). Conditions: plain residues with an end cap or a label only (N-terminal biotin on a linker: ado-ado).
T2 sequence (Q92796 374-475, limits assumed, looked up): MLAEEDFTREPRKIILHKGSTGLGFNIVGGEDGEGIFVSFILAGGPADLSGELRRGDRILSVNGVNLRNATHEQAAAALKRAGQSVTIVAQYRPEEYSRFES
Set-up: key: below the threshold = too weak to quantify, mostly under pKd 3.1 to 4
With KPGKGSETVV [FZD4, Q9ULV1] the pKd was 4.02.
In the case of AAVENKVTDL [PLXNB1, O43157], the pKd is reported as “below the threshold”.

These binders were tested against T3, LNX2_2, Q8N448 (assay: holdup assay). Conditions: plain residues with an end cap or a label only (N-terminal biotin on a linker: ado-ado).
T3 sequence (Q8N448 334-432, limits assumed, looked up): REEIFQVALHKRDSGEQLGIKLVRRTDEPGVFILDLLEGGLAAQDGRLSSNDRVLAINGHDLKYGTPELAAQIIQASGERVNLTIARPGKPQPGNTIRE
Set-up: key: below the threshold = too weak to quantify, mostly under pKd 3.1 to 4
With KPGKGSETVV [FZD4, Q9ULV1] the pKd was 4.92.
In the case of AAVENKVTDL [PLXNB1, O43157], the pKd is reported as “below the threshold”.

These binders were tested against MAGI2_3, Q86UL8 (assay: holdup assay). Conditions: plain residues with an end cap or a label only (N-terminal biotin on a linker: ado-ado).
Chain of MAGI2_3, Q86UL8 (Q86UL8 600-682): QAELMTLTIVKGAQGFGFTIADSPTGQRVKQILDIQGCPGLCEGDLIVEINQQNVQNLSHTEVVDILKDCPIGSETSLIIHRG
Set-up: key: below the threshold = too weak to quantify, mostly under pKd 3.1 to 4
With KPGKGSETVV [FZD4, Q9ULV1] the pKd was “below the threshold”.
For AAVENKVTDL [PLXNB1, O43157], the pKd was “below the threshold”.

These binders were tested against NHERF4_1, Q86UT5-2 (assay: holdup assay). Conditions: plain residues with an end cap or a label only (N-terminal biotin on a linker: ado-ado).
Chain of NHERF4_1, Q86UT5-2 (Q86UT5 other isoform, or with tags, fused parts or gaps): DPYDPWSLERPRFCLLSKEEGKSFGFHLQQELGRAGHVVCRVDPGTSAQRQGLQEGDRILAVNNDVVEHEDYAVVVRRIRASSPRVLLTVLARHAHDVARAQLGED
Set-up: key: below the threshold = too weak to quantify, mostly under pKd 3.1 to 4
With KPGKGSETVV [FZD4, Q9ULV1] the pKd was “below the threshold”.
Work on AAVENKVTDL [PLXNB1, O43157] yielded a pKd of 4.

The binders below were run against T4, GRIP1_5, Q9Y3R0 (assay: holdup assay). Conditions: plain residues with an end cap or a label only (N-terminal biotin on a linker: ado-ado).
T4 sequence (Q9Y3R0 568-668, limits assumed, looked up): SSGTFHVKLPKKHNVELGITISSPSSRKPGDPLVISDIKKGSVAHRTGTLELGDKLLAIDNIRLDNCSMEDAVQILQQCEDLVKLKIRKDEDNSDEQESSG
Set-up: key: below the threshold = too weak to quantify, mostly under pKd 3.1 to 4
For KPGKGSETVV [FZD4, Q9ULV1], the pKd was “below the threshold”.
For AAVENKVTDL [PLXNB1, O43157], the pKd was “below the threshold”.

Each binder was assayed against T5, DVL3, Q92997 (assay: holdup assay). Conditions: plain residues with an end cap or a label only (N-terminal biotin on a linker: ado-ado).
T5 sequence (Q92997 244-331, limits assumed, looked up): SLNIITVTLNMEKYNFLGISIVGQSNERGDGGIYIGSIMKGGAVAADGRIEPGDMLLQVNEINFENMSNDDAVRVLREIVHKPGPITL
Set-up: key: below the threshold = too weak to quantify, mostly under pKd 3.1 to 4
KPGKGSETVV [FZD4, Q9ULV1] was tested, and the pKd was “below the threshold”.
With AAVENKVTDL [PLXNB1, O43157] the pKd was “below the threshold”.

What follows are binders tested against T6, DFNB31_2, Q9P202 (assay: holdup assay). Conditions: plain residues with an end cap or a label only (N-terminal biotin on a linker: ado-ado).
T6 sequence (Q9P202 274-371, limits assumed, looked up): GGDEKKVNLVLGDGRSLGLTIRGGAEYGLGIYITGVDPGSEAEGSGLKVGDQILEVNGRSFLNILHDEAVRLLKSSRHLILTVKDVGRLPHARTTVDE
Set-up: key: below the threshold = too weak to quantify, mostly under pKd 3.1 to 4
KPGKGSETVV [FZD4, Q9ULV1] was tested, and the pKd was “below the threshold”.
AAVENKVTDL [PLXNB1, O43157] was tested, and the pKd was “below the threshold”.

What follows are binders tested against T7, MPP2, Q14168 (assay: holdup assay). Conditions: plain residues with an end cap or a label only (N-terminal biotin on a linker: ado-ado).
T7 sequence (Q14168 180-250, limits assumed, looked up): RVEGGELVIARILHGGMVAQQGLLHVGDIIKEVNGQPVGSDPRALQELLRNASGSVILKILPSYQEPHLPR
Set-up: key: below the threshold = too weak to quantify, mostly under pKd 3.1 to 4
For KPGKGSETVV [FZD4, Q9ULV1], the pKd was “below the threshold”.
With AAVENKVTDL [PLXNB1, O43157] the pKd was “below the threshold”.

These binders were tested against PTPN3, P26045 (assay: holdup assay). Conditions: plain residues with an end cap or a label only (N-terminal biotin on a linker: ado-ado).
Chain of PTPN3, P26045 (P26045 505-587): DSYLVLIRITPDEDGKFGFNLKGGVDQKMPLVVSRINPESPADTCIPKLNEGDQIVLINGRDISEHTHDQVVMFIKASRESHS
Set-up: key: below the threshold = too weak to quantify, mostly under pKd 3.1 to 4
Work on KPGKGSETVV [FZD4, Q9ULV1] yielded a pKd of 4.13.
In the case of AAVENKVTDL [PLXNB1, O43157], the pKd is reported as 4.68.

Each binder was assayed against MAGI1_2, Q96QZ7 (assay: holdup assay). Conditions: plain residues with an end cap or a label only (N-terminal biotin on a linker: ado-ado).
Chain of MAGI1_2, Q96QZ7 (Q96QZ7 456-580): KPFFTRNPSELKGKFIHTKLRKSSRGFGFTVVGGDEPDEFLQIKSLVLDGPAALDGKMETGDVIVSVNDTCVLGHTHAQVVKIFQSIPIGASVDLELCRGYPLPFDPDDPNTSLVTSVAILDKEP
Set-up: key: below the threshold = too weak to quantify, mostly under pKd 3.1 to 4
Binder KPGKGSETVV [FZD4, Q9ULV1] has a pKd of 4.47.
In the case of AAVENKVTDL [PLXNB1, O43157], the pKd is reported as “below the threshold”.

What follows are binders tested against DLG1_1, Q12959 (assay: holdup assay). Conditions: plain residues with an end cap or a label only (N-terminal biotin on a linker: ado-ado).
Set-up: key: below the threshold = too weak to quantify, mostly under pKd 3.1 to 4
KPGKGSETVV [FZD4, Q9ULV1] gave a pKd of 4.65.
Work on AAVENKVTDL [PLXNB1, O43157] yielded a pKd of 3.7.

The binders below were run against GRIP2_6, Q9C0E4 (assay: holdup assay). Conditions: plain residues with an end cap or a label only (N-terminal biotin on a linker: ado-ado).
Chain of GRIP2_6, Q9C0E4 (Q9C0E4 648-740): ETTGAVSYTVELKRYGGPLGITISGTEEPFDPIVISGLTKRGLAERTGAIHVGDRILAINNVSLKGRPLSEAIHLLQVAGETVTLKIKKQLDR
Set-up: key: below the threshold = too weak to quantify, mostly under pKd 3.1 to 4
In the case of KPGKGSETVV [FZD4, Q9ULV1], the pKd is reported as “below the threshold”.
With AAVENKVTDL [PLXNB1, O43157] the pKd was “below the threshold”.

These binders were tested against LIMK2, P53671 (assay: holdup assay). Conditions: plain residues with an end cap or a label only (N-terminal biotin on a linker: ado-ado).
Chain of LIMK2, P53671 (P53671 143-248): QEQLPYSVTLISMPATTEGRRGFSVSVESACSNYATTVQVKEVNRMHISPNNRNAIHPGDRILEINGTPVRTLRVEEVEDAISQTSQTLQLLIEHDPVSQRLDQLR
Set-up: key: below the threshold = too weak to quantify, mostly under pKd 3.1 to 4
With KPGKGSETVV [FZD4, Q9ULV1] the pKd was “below the threshold”.
For AAVENKVTDL [PLXNB1, O43157], the pKd was “below the threshold”.

The binders below were run against T8, PTPN13_1, Q12923 (assay: holdup assay). Conditions: plain residues with an end cap or a label only (N-terminal biotin on a linker: ado-ado).
T8 sequence (Q12923 1088-1188, limits assumed, looked up): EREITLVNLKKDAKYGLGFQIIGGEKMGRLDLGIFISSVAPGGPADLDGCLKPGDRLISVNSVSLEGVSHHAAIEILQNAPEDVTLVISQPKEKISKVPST
Set-up: key: below the threshold = too weak to quantify, mostly under pKd 3.1 to 4
For KPGKGSETVV [FZD4, Q9ULV1], the pKd was “below the threshold”.
In the case of AAVENKVTDL [PLXNB1, O43157], the pKd is reported as “below the threshold”.

The binders below were run against SCRIB_2, Q14160 (assay: holdup assay). Conditions: plain residues with an end cap or a label only (N-terminal biotin on a linker: ado-ado).
Chain of SCRIB_2, Q14160 (Q14160 857-960): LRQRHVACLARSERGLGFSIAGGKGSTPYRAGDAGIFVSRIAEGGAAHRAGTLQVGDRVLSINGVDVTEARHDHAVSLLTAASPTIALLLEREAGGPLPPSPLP
Set-up: key: below the threshold = too weak to quantify, mostly under pKd 3.1 to 4
In the case of KPGKGSETVV [FZD4, Q9ULV1], the pKd is reported as 3.83.
Work on AAVENKVTDL [PLXNB1, O43157] yielded a pKd of 3.52.

What follows are binders tested against T9, LIN7C, Q9NUP9 (assay: holdup assay). Conditions: plain residues with an end cap or a label only (N-terminal biotin on a linker: ado-ado).
T9 sequence (Q9NUP9 88-185, limits assumed, looked up): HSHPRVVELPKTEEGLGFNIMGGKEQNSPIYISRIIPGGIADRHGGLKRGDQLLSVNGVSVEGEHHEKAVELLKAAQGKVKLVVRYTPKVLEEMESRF
Set-up: key: below the threshold = too weak to quantify, mostly under pKd 3.1 to 4
KPGKGSETVV [FZD4, Q9ULV1] showed a pKd of 4.08.
For AAVENKVTDL [PLXNB1, O43157], the pKd was “below the threshold”.

These binders were tested against SCRIB_3, Q14160 (assay: holdup assay). Conditions: plain residues with an end cap or a label only (N-terminal biotin on a linker: ado-ado).
Chain of SCRIB_3, Q14160 (Q14160 999-1103): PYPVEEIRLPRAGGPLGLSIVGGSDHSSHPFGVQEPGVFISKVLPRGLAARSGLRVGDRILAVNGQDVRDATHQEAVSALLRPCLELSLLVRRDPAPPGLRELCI
Set-up: key: below the threshold = too weak to quantify, mostly under pKd 3.1 to 4
KPGKGSETVV [FZD4, Q9ULV1] gave a pKd of 3.94.
For AAVENKVTDL [PLXNB1, O43157], the pKd was 4.94.

Each binder was assayed against FRMPD3, Q5JV73 (assay: holdup assay). Conditions: plain residues with an end cap or a label only (N-terminal biotin on a linker: ado-ado).
Chain of FRMPD3, Q5JV73 (Q5JV73 12-100): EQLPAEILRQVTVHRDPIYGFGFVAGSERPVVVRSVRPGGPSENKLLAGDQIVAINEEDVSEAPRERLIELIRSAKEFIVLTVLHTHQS
Set-up: key: below the threshold = too weak to quantify, mostly under pKd 3.1 to 4
KPGKGSETVV [FZD4, Q9ULV1] was tested, and the pKd was “below the threshold”.
In the case of AAVENKVTDL [PLXNB1, O43157], the pKd is reported as “below the threshold”.

Each binder was assayed against T10, DFNB31_3, Q9P202 (assay: holdup assay). Conditions: plain residues with an end cap or a label only (N-terminal biotin on a linker: ado-ado).
T10 sequence (Q9P202 811-907, limits assumed, looked up): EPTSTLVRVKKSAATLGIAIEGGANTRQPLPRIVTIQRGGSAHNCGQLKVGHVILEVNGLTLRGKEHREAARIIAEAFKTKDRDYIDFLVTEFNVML
Set-up: key: below the threshold = too weak to quantify, mostly under pKd 3.1 to 4
With KPGKGSETVV [FZD4, Q9ULV1] the pKd was “below the threshold”.
AAVENKVTDL [PLXNB1, O43157] was tested, and the pKd was 3.94.

The binders below were run against T11, GRIP1_7, Q9Y3R0 (assay: holdup assay). Conditions: plain residues with an end cap or a label only (N-terminal biotin on a linker: ado-ado).
T11 sequence (Q9Y3R0 999-1096, limits assumed, looked up): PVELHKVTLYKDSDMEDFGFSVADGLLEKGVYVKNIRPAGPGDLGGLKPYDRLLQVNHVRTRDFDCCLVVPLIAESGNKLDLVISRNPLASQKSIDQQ
Set-up: key: below the threshold = too weak to quantify, mostly under pKd 3.1 to 4
For KPGKGSETVV [FZD4, Q9ULV1], the pKd was “below the threshold”.
For AAVENKVTDL [PLXNB1, O43157], the pKd was “below the threshold”.

These binders were tested against Inadl_4, Q8NI35 (assay: holdup assay). Conditions: plain residues with an end cap or a label only (N-terminal biotin on a linker: ado-ado).
Chain of Inadl_4, Q8NI35 (Q8NI35 547-651): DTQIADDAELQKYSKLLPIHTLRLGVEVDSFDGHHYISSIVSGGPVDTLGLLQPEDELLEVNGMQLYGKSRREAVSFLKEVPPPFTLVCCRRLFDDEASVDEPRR
Set-up: key: below the threshold = too weak to quantify, mostly under pKd 3.1 to 4
KPGKGSETVV [FZD4, Q9ULV1] was tested, and the pKd was “below the threshold”.
With AAVENKVTDL [PLXNB1, O43157] the pKd was “below the threshold”.

Each binder was assayed against LNX1_1, Q8TBB1 (assay: holdup assay). Conditions: plain residues with an end cap or a label only (N-terminal biotin on a linker: ado-ado).
Chain of LNX1_1, Q8TBB1 (Q8TBB1 261-371): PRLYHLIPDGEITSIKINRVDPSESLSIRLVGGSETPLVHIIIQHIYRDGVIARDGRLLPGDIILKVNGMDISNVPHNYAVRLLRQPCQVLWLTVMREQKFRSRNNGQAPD
Set-up: key: below the threshold = too weak to quantify, mostly under pKd 3.1 to 4
With KPGKGSETVV [FZD4, Q9ULV1] the pKd was “below the threshold”.
Binder AAVENKVTDL [PLXNB1, O43157] has a pKd of 4.19.

Each binder was assayed against T12, NHERF3_1, Q5T2W1 (assay: holdup assay). Conditions: plain residues with an end cap or a label only (N-terminal biotin on a linker: ado-ado).
T12 sequence (Q5T2W1 4-100, limits assumed, looked up): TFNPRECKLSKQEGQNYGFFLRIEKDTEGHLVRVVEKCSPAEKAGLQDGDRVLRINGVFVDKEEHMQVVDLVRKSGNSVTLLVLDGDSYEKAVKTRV
Set-up: key: below the threshold = too weak to quantify, mostly under pKd 3.1 to 4
With KPGKGSETVV [FZD4, Q9ULV1] the pKd was “below the threshold”.
For AAVENKVTDL [PLXNB1, O43157], the pKd was “below the threshold”.
